Source: patent CN114539423A (dated 2022)

How the values were obtained:
[1] = target: CD3 (on human T cells) (human); experiment: flow cytometry titration on human T cells, same method as for Nalm6, fitted in GraphPad Prism8
[2] = target: T1, CD19 (on Nalm6 leukemia cells) (human, UniProt P15391 20-556); experiment: flow cytometry titration (0.05-100 nM) on Nalm6 cells, anti-His then APC anti-mouse IgG detection, fitted in GraphPad Prism8
T1 construct: whole, on cells; also called CD19抗原; Nalm6上的CD19抗原
T1 sequence (looked up): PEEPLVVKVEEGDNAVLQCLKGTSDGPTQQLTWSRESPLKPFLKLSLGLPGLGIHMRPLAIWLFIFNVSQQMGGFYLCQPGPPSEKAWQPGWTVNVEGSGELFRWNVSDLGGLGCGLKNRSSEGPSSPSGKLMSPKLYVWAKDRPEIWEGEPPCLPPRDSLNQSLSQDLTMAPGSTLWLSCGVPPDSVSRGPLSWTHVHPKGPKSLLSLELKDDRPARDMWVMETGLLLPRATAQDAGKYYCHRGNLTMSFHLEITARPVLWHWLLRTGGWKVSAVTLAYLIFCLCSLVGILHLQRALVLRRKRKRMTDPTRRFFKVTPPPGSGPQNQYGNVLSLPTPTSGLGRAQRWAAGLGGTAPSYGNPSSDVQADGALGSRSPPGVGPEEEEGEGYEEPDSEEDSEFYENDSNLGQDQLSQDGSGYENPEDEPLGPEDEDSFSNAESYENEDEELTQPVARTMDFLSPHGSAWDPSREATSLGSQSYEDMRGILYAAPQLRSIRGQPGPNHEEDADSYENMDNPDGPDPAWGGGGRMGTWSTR

Chain of CD3 (on human T cells) (human) (P07766 23-207, chain 1 of 4): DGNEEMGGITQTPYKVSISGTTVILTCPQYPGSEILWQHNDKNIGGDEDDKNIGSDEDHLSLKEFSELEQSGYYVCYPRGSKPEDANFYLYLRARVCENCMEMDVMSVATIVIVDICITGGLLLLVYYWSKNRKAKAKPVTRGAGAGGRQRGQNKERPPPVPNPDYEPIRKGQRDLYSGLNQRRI
Chain of CD3 (on human T cells) (human) (P09693 23-182, chain 2 of 4, further chain): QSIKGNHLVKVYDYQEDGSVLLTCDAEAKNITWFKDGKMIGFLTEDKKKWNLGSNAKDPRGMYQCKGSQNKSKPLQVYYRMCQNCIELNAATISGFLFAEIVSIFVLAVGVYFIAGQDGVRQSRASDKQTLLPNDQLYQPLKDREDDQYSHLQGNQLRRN
Chain of CD3 (on human T cells) (human) (P04234 22-171, chain 3 of 4, further chain): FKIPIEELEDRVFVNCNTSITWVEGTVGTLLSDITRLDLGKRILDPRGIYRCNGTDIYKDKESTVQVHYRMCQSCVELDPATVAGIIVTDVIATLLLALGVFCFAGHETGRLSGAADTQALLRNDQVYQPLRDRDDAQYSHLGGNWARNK
Chain of CD3 (on human T cells) (human) (P20963 22-164, chain 4 of 4, further chain): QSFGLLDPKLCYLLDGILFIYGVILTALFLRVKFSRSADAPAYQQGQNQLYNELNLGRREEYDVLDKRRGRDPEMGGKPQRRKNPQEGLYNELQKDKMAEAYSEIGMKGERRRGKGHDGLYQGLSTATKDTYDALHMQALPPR

Kd [1]: 19.2 nM
Kd [2]: 11.7 nM
B1: CD19scFv-CD80-CD3scFv三特异性融合蛋白 (other)
chain: HHHHHHLEDIVLTQSPKFMSTSVGDRVSVTCKASQNVGTNVAWYQQKPGQSPKPLIYSATYRNSGVPDRFTGSGSGTDFTLTITNVQSKDLADYFCQQYNRYPYTSGGGTKLEIKRGGGGSGGGGSGGGGSQVQLQQSGAELVRPGSSVKISCKASGYAFSSYWMNWVKQRPGQGLEWIGQIYPGDGDTNYNGKFKGQATLTADKSSSTAYMQLSGLTSEDSAVYFCARKTISSVVDFYFDYWGQGTTLTVSSEFGGGGSGGGGSGGGGSGGGGSVIHVTKEVKEVATLSCGHNVSVEELAQTRIYWQKEKKMVLTMMSGDMNIWPEYKNRTIFDITNNLSIVILALRPSDEGTYECVVLKYEKDAFKREHLAEVTLSVKADFPTPSISDFEIPTSNIRRIICSTSGGFPEPHLSWLENGEELNAINTTVSQDPETELYAVSSKLDFNMTTNHSFMCLIKYGHLRVNQTFNWNTTKQEHFPDNGGGGSGGGGSGGGGSGGGGSVDADIELTQSPAIMSASPGEKVTMTCSASSSVSYMNWYQQKSGTSPKRWIYDTSKLASGVPARFSGSGSGTSYSLTISGMEAEDAATYYCQQWSSNPFTFGSGTKLELKRGGGGSGGGGSGGGGSQVQLQQSGAELARPGASVKMSCKASGYTFTRYTMHWVKQRPGQGLEWIGYINPSRGYTNYNQKFKDKATLTTDKSSSTAYMELTRLTSEDSAVYYCARYYDDHYSLDYWGQGTTVTVSSWSHPQFEK
notes: Expressed in ExpiCHO-S cells; also called 19TriTE; CD19scFv-CD80-CD3scFv重组融合蛋白
